Data from paper PMC7299281.

Target: prefusion S protein of SARS-CoV (SARS-CoV)

With COVA1-16 (antibody) the IC50 of neutralisation of SARS-CoV pseudovirus was 2.5 µg/mL.
In the case of COVA2-02 (antibody), the IC50 of neutralisation of SARS-CoV pseudovirus is reported as 0.61 µg/mL.
